Test results: paper PMC7304853
Like-named read-outs stand apart in the source and are kept apart here. Blank lines part the entries; values can stand above or below the molecule they belong to.

Key:
Assay in all cases: SPR
[1] = target: mFcγRII extracellular domain from NOD SCID mice (ly17.1 variant), 6xHis (mouse) (UniProt P08101)
[2] = target: mFcγRII extracellular domain from SCID mice (ly17.2 variant), 6xHis (mouse) (UniProt P08101)
hIgG1 #1 (human) [3] = target: hIgG1 #1 (human)
hIgG1 #2 (human) [4] = target: hIgG1 #2 (human)
hIgG2 #1 (human) [5] = target: hIgG2 #1 (human)
hIgG2 #2 (human) [6] = target: hIgG2 #2 (human)
mIgG1 #1 (mouse) [7] = target: mIgG1 #1 (mouse)
mIgG1 #2 (mouse) [8] = target: mIgG1 #2 (mouse)
mIgG2a #1 (mouse) [9] = target: mIgG2a #1 (mouse)
mIgG2a #2 (mouse) [10] = target: mIgG2a #2 (mouse)
hIgG1 #1 (human) [11] = target: hIgG1 #1 (human); remark: listed apart in the source
hIgG1 #2 (human) [12] = target: hIgG1 #2 (human); remark: listed apart in the source
hIgG2 #1 (human) [13] = target: hIgG2 #1 (human); remark: listed apart in the source
hIgG2 #2 (human) [14] = target: hIgG2 #2 (human); remark: listed apart in the source
mIgG1 #1 (mouse) [15] = target: mIgG1 #1 (mouse); remark: listed apart in the source
mIgG1 #2 (mouse) [16] = target: mIgG1 #2 (mouse); remark: listed apart in the source
mIgG2a #1 (mouse) [17] = target: mIgG2a #1 (mouse); remark: listed apart in the source
mIgG2a #2 (mouse) [18] = target: mIgG2a #2 (mouse); remark: listed apart in the source

Chain of UniProt P08101 (P08101 1-207, change not shown): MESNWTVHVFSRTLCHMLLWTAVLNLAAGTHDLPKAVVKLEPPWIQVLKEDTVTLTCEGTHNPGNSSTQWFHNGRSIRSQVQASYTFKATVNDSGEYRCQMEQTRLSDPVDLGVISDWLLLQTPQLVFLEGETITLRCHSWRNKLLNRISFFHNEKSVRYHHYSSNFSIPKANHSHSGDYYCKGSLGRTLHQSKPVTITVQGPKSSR

Molecule: Rituximab mIgG2a (antibody)
Kd [1]: 2430 nM
Kd [2]: 2630 nM

Molecule: Cetuximab (hIgG1) (antibody)
Kd [1]: 4380 nM
Kd [2]: 5420 nM

Results, then the molecule that gave them:

Kd [1]: 2250 nM
Kd [2]: 2020 nM
Molecule: Rituximab mIgG1 (antibody)

Kd (hIgG1 #1 (human) [3]): 49.2 nM
Kd (hIgG1 #2 (human) [4]): 79 nM
Kd (hIgG2 #1 (human) [5]): 210 nM
Kd (hIgG2 #2 (human) [6]): 218 nM
Kd (mIgG1 #1 (mouse) [7]): 2.77 nM
Kd (mIgG1 #2 (mouse) [8]): 3.62 nM
Kd (mIgG2a #1 (mouse) [9]): 23.6 nM
Kd (mIgG2a #2 (mouse) [10]): 24.1 nM
Kd (hIgG1 #1 (human) [11]): 3020 nM
Kd (hIgG1 #2 (human) [12]): 6610 nM
Kd (hIgG2 #1 (human) [13]): 7650 nM
Kd (hIgG2 #2 (human) [14]): 14500 nM
Kd (mIgG1 #1 (mouse) [15]): 274 nM
Kd (mIgG1 #2 (mouse) [16]): 498 nM
Kd (mIgG2a #1 (mouse) [17]): 1180 nM
Kd (mIgG2a #2 (mouse) [18]): 1100 nM
B1: Recombinant mFcγRII (R&D systems) (receptor)
chain: THDLPKAVVKLEPPWIQVLKEDTVTLTCEGTHNPGNSSTQWFHNGRSIRSQVQASYTFKATVNDSGEYRCQMEQTRLSDPVDLGVISDWLLLQTPQLVFLEGETITLRCHSWRNKLLNRISFFHNEKSVRYHHYSSNFSIPKANHSHSGDYYCKGSLGRTLHQSKPVTITVQGPKSSRSLP
